From patent US20230242902A1, “A HIGHLY ERROR-PRONE […] R[…] FOR TARGETED CONTINUOUS EVOLUTION IN VIVO” (The Regents of the University of California, priority 2017, published 2023) come the findings set out here.

Positions count from the first letter of the chain named. Numbers in names are those of the source.

B1: T310F: TP-DNAP1 variant (protein)
chain: MDYKDKALNDLRNVYADFDSLPLDFRQILIKDRATLLQKEDVEKKILERQEDAKKYAEYLKQSEIPERISLPNIKRHKGVSISFEETSEDMVLEPRPFIFDGLNIRCFRRETIFSLKNKILNMVKESSSFKNVSRQSVSFMYFKIFNKGKVIASTKSVNIYEDKIDERLEDLCNNFDDVLKKIIDVTYGYESLFVSETYSYVIFYAKSIYFPQPRCVNNWGNNIPNILTFDSFKLFTANKNNVSCIKQCSRFLWQKDFNTLEEMIEYKNGNICIVTPQLHINDVRDIKSFNDIRLYSESPIKTFSVIDNFITYLFYFKEHLGVIFNITKSRHDRRVTKFSPLSKFSDVKNITVCFDIESYFDPEKESNQVNIPFICCASIIYNKVIGNIVDFEGRDCVAQMIEYVVDICGELNISSVELIAHNGGGYDFHYILSSMYNPAAIKNILIRNNSFISFNFAHDGVKFSVKDSYSFLLCSLANASKAFLNEETFKKTDFPHHDLKTADDLYKVYKEWSSVNTEINHVVEKEKLLITSEHIVNFTKNDKSKTLIEWSKDYCRNDVLVLSKVWLEFKNAVEDIFNCELVDQTMTLAGLSYKLFQANMPFDVELRHPNKEDYFNMREALIGGRCISVNGIYKDVLCLDVKSLYPASMAFYDQPYGSFKRVSSRPKDELGIYYVRVTPNRNNKSNFFPIRSHNKITYNNFEESTYIAWYTNVDIDIGLSEGHNIEYIPFDSYGNIGYSWSKKGKIFEKYIKDVLYKLKIKYEKQNNKVKRNVIKIIMNSLWGKFAQKWVNFEYFIKSEDDIDFESEEAYKIWDTDFMLIKKIKESTYSSKPIQNGVFTLSWARYHMKSIWDAGAKEGAECIYSDTDSIFVHKEHFKKNAKFMLNGLKVPIIGSEVGQLELECEFDKLLCAGKKQYMGFYTYFQDGKPCIKEKKRFKGIPSNYIIPELYAHLLSGADKEAKIQFLKFRREWGSVKGYIENKTVKAT
B2: I311G: TP-DNAP1 variant (protein)
chain: B1 chain with F310T, I311G
B3: D333A: TP-DNAP1 variant (protein)
chain: B1 chain with F310T, D333A
B4: T312Q: TP-DNAP1 variant (protein)
chain: B1 chain with F310T, T312Q
B5: Y313H: TP-DNAP1 variant (protein)
chain: B1 chain with F310T, Y313H
B6: Y316R: TP-DNAP1 variant (protein)
chain: B1 chain with F310T, Y316R
B7: S330R: TP-DNAP1 variant (protein)
chain: B1 chain with F310T, S330R
B8: T310W: TP-DNAP1 variant (protein)
chain: B1 chain with F310W
B9: D333V: TP-DNAP1 variant (protein)
chain: B1 chain with F310T, D333V
B10: D333N, K344R: TP-DNAP1 variant (protein)
chain: B1 chain with F310T, D333N, K344R
B11: I311M: TP-DNAP1 variant (protein)
chain: B1 chain with F310T, I311M
B12: D333T: TP-DNAP1 variant (protein)
chain: B1 chain with F310T, D333T
B13: Y313F: TP-DNAP1 variant (protein)
chain: B1 chain with F310T, Y313F
B14: I372C: TP-DNAP1 variant (protein)
chain: B1 chain with F310T, I372C
B15: D333M: TP-DNAP1 variant (protein)
chain: B1 chain with F310T, D333M
B16: I311D: TP-DNAP1 variant (protein)
chain: B1 chain with F310T, I311D
B17: Y313V: TP-DNAP1 variant (protein)
chain: B1 chain with F310T, Y313V
B18: Y313M: TP-DNAP1 variant (protein)
chain: B1 chain with F310T, Y313M
B19: T312E: TP-DNAP1 variant (protein)
chain: B1 chain with F310T, T312E
B20: I327Q: TP-DNAP1 variant (protein)
chain: B1 chain with F310T, I327Q
B21: I311N: TP-DNAP1 variant (protein)
chain: B1 chain with F310T, I311N
B22: K365N: TP-DNAP1 variant (protein)
chain: B1 chain with F310T, K365N
B23: Y313W: TP-DNAP1 variant (protein)
chain: B1 chain with F310T, Y313W
B24: D333N: TP-DNAP1 variant (protein)
chain: B1 chain with F310T, D333N
B25: I311A: TP-DNAP1 variant (protein)
chain: B1 chain with F310T, I311A

The subject of the test is p1. Description: p1 copy number by p1-encoded mKate2 fluorescence. Particulars: OR-Y24, measured in triplicate. The test is classed as cell-based, S. cerevisiae. A digest of the protocol: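 Steps: transform TP-DNAP1 variant into OR-Y24; passage until w.t. p1 displaced; dilute 1:10,000 and grow to saturation in triplicate; measure p1-encoded mKate2 fluorescence; convert to copy number via linear qPCR-based calibration. Four high-copy variants were checked directly by qPCR.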
For B1, the “Mean fold-increase over w.t. (p1 copy number)” value (“Mean fold-increase” for short) is recorded as 2.66 fold. For the molecule B2, the “Mean fold-increase” value stood at 2.05 fold. Under B3 stands 1.57 fold; under B4, 2.85 fold.

For the molecule B5, the “Mean fold-increase” value was found to be 3.08 fold.

B6: the “Mean fold-increase” value turned out to be 2.46 fold. Then B7, with 2.21 fold; and B8, with 2.48 fold; and B9, with 2.18 fold. For B10, the “Mean fold-increase” value worked out at 2.07 fold.

Regarding B11, the “Mean fold-increase” value is reported as 2.26 fold.

For the molecule B12, the “Mean fold-increase” value came out at 2.41 fold. Under B13 stands 2.11 fold. Then B14, with 1.73 fold; and B15, with 2.6 fold.

Take B16: the “Mean fold-increase” value came out at 1.86 fold. Under B17 stands 2.48 fold. For the molecule B18, the “Mean fold-increase” value came out at 1.94 fold. Regarding B19, the “Mean fold-increase” value is 2.29 fold. Under B20 stands 2.15 fold; under B21, 2.55 fold; under B22, 1.89 fold. Then B23, with 2.15 fold; and B24, with 2.07 fold.

B25: the “Mean fold-increase” value is given as 2.19 fold.
